Reference: paper doi:10.1101/2022.01.04.474980

Target: FRQ WT peptide … (FFD and the double arginines) (N. crassa)
Assay: peptide or protein array

“FREQUENCY-Interacting RNA Helicase, FRHΔ100 (E. coli expressed, 6x His-tag) (from UniProt Q1K502 100-1106) (domain or fragment)” showed a normalized microarray intensity of 64.
